One may read the EC50 as the concentration giving half of the maximal effect. Low readings indicate greater potency, high ones weaker potency.

For this experiment, the target named is T1, rhHGF R/Fc Chimera (R&D Systems; Cat.358MT/CF) (human, UniProt P08581 25-932).
T1 construct: Bought reagent; Fc part of the bought chimera not given; not described
The experiment is described as follows: ELISA on coated rhHGF R/Fc Chimera. As to the method:
c-Met binding properties of the mutants were tested in an ELISA. ELISA plate wells were coated overnight at 4° C. with rhHGF R/Fc Chimera (R&D Systems; Cat.358MT/CF) in PBS (1 μg/mL). Next, the wells were washed with PBST (PBS supplemented with 0.05% Tween-20 [Sigma-Aldrich, Zwijndrecht, The Netherlands]) and blocked for one hour at room temperature (RT) with PBSTC (PBST supplemented 2% [v/v] chicken serum [Gibco, Paisley, Scotland]). Subsequently, the wells were washed with PBST and incubated for one hour at RT with the anti-cMet antibodies and variants serially diluted in PBSTC (10 μg/mL in 4-fold dilutions). […] After washing, the reaction was visualized by a 15 min incubation with 2,2′-azino-bis(3-ethylbenzothiazoline-6-sulfonic acid) (ABTS: dilute one ABTS tablet in 50 mL ABTS buffer [Roche Diagnostics, Almere, The Netherlands]) at RT protected from light. The colorization was stopped by adding an equal volume of oxalic acid (Sigma-Aldrich, Zwijndrecht, The Netherlands). […] at 405 nm was measured on a microtiter plate reader (Biotek Instruments, Winooski, USA).
Background: ELISA stands for enzyme-linked immunosorbent assay.

T1 sequence (P08581 25-932, change not shown): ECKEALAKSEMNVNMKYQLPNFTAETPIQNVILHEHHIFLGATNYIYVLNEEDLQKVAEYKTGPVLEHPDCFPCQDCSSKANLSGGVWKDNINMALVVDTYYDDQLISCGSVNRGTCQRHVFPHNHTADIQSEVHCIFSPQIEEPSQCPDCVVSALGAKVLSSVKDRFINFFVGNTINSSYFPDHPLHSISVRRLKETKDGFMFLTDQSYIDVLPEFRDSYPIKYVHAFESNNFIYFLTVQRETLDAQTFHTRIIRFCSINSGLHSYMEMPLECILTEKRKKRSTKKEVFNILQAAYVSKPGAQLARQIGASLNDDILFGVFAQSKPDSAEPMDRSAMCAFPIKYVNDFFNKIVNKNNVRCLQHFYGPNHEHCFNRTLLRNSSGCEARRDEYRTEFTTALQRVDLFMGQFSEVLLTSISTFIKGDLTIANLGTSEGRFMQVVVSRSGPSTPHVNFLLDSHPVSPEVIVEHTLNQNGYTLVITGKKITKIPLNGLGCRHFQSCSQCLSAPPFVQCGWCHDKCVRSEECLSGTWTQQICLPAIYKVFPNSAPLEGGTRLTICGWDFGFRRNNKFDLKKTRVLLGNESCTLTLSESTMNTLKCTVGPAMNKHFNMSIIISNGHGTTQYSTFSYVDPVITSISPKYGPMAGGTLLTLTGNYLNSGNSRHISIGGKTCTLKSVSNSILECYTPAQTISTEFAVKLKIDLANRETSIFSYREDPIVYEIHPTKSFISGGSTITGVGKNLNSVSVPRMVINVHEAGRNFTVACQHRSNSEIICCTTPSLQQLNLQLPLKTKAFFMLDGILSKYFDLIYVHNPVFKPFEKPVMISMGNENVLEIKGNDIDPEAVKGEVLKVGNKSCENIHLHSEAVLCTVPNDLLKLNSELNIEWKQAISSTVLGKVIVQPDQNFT

B1: IgG1-1016-069-ΔC220 (antibody, V domains shown)
VH: QVQLVQSGAEVKKPGASVKVSCETSGYTFTSYGISWVRQAPGHGLEWMGWISAYNGYTNYAQKLQGRVTMTTDTSTSTAYMELRSLRSDDTAVYYCARDLRGTNYFDYWGQGTLVTVSS
VL: DIQMTQSPSSVSASVGDRVTITCRASQGISNWLAWFQHKPGKAPKLLIYAASSLLSGVPSRFSGSGSGTDFTLTISSLQPEDFATYYCQQANSFPITFGQGTRLEIK
notes: human kappa; also called IgG1 ΔC220 mutant of 069
On to B1, for which the EC50 was 0.0189 µg/mL.

B2: IgG1-1016-069-C220S (antibody, V domains shown)
VH: QVQLVQSGAEVKKPGASVKVSCETSGYTFTSYGISWVRQAPGHGLEWMGWISAYNGYTNYAQKLQGRVTMTTDTSTSTAYMELRSLRSDDTAVYYCARDLRGTNYFDYWGQGTLVTVSS
VL: DIQMTQSPSSVSASVGDRVTITCRASQGISNWLAWFQHKPGKAPKLLIYAASSLLSGVPSRFSGSGSGTDFTLTISSLQPEDFATYYCQQANSFPITFGQGTRLEIK
notes: human kappa; also called IgG1 C220S mutant of 069
As to B2, the midpoint of the response, the EC50, lay at 0.0156 µg/mL.

B3: IgG2-1016-069 (antibody, V domains shown)
VH: QVQLVQSGAEVKKPGASVKVSCETSGYTFTSYGISWVRQAPGHGLEWMGWISAYNGYTNYAQKLQGRVTMTTDTSTSTAYMELRSLRSDDTAVYYCARDLRGTNYFDYWGQGTLVTVSS
VL: DIQMTQSPSSVSASVGDRVTITCRASQGISNWLAWFQHKPGKAPKLLIYAASSLLSGVPSRFSGSGSGTDFTLTISSLQPEDFATYYCQQANSFPITFGQGTRLEIK
notes: IgG2 format of clone 069; also called IgG2 backbone variant of 069
In the case of B3, the EC50 turned out to be 0.0296 µg/mL.

B4: IgG1-1016-069 TH7Δ6-9 (antibody, V domains shown)
VH: QVQLVQSGAEVKKPGASVKVSCETSGYTFTSYGISWVRQAPGHGLEWMGWISAYNGYTNYAQKLQGRVTMTTDTSTSTAYMELRSLRSDDTAVYYCARDLRGTNYFDYWGQGTLVTVSS
VL: DIQMTQSPSSVSASVGDRVTITCRASQGISNWLAWFQHKPGKAPKLLIYAASSLLSGVPSRFSGSGSGTDFTLTISSLQPEDFATYYCQQANSFPITFGQGTRLEIK
notes: human kappa; also called IgG1 TH7Δ6-9 mutant of 069
The molecule B4 showed an EC50 of 0.0188 µg/mL.

B5: IgG1-1016-069-Hinge IgG3 (antibody, V domains shown)
VH: QVQLVQSGAEVKKPGASVKVSCETSGYTFTSYGISWVRQAPGHGLEWMGWISAYNGYTNYAQKLQGRVTMTTDTSTSTAYMELRSLRSDDTAVYYCARDLRGTNYFDYWGQGTLVTVSS
VL: DIQMTQSPSSVSASVGDRVTITCRASQGISNWLAWFQHKPGKAPKLLIYAASSLLSGVPSRFSGSGSGTDFTLTISSLQPEDFATYYCQQANSFPITFGQGTRLEIK
notes: also called IgG1 Hinge-IgG3 variant of 069
Molecule B5 gave an EC50 of 0.0142 µg/mL.

B6: IgG1-1016-069-Hinge IgG2 (antibody, V domains shown)
VH: QVQLVQSGAEVKKPGASVKVSCETSGYTFTSYGISWVRQAPGHGLEWMGWISAYNGYTNYAQKLQGRVTMTTDTSTSTAYMELRSLRSDDTAVYYCARDLRGTNYFDYWGQGTLVTVSS
VL: DIQMTQSPSSVSASVGDRVTITCRASQGISNWLAWFQHKPGKAPKLLIYAASSLLSGVPSRFSGSGSGTDFTLTISSLQPEDFATYYCQQANSFPITFGQGTRLEIK
notes: human kappa; also called IgG1 Hinge-IgG2 variant of 069
In the case of B6, the EC50 amounted to 0.023 µg/mL.

B7: Uni-IgG1-1016-069 (antibody, V domains shown)
VH: QVQLVQSGAEVKKPGASVKVSCETSGYTFTSYGISWVRQAPGHGLEWMGWISAYNGYTNYAQKLQGRVTMTTDTSTSTAYMELRSLRSDDTAVYYCARDLRGTNYFDYWGQGTLVTVSS
VL: DIQMTQSPSSVSASVGDRVTITCRASQGISNWLAWFQHKPGKAPKLLIYAASSLLSGVPSRFSGSGSGTDFTLTISSLQPEDFATYYCQQANSFPITFGQGTRLEIK
notes: human kappa; also called Hinge deleted IgG1 (Uni-IgG1) of 069; UniBody-IgG1
For B7, the EC50 was 0.0154 µg/mL.
